Paper PMC6704107 (2019)

What was measured:
[1] = biological target: T1, AAVR PKD1-5 S425A (UniProt Q8IZA0-1 1-1049, S425A); test: SPR
T1 sequence: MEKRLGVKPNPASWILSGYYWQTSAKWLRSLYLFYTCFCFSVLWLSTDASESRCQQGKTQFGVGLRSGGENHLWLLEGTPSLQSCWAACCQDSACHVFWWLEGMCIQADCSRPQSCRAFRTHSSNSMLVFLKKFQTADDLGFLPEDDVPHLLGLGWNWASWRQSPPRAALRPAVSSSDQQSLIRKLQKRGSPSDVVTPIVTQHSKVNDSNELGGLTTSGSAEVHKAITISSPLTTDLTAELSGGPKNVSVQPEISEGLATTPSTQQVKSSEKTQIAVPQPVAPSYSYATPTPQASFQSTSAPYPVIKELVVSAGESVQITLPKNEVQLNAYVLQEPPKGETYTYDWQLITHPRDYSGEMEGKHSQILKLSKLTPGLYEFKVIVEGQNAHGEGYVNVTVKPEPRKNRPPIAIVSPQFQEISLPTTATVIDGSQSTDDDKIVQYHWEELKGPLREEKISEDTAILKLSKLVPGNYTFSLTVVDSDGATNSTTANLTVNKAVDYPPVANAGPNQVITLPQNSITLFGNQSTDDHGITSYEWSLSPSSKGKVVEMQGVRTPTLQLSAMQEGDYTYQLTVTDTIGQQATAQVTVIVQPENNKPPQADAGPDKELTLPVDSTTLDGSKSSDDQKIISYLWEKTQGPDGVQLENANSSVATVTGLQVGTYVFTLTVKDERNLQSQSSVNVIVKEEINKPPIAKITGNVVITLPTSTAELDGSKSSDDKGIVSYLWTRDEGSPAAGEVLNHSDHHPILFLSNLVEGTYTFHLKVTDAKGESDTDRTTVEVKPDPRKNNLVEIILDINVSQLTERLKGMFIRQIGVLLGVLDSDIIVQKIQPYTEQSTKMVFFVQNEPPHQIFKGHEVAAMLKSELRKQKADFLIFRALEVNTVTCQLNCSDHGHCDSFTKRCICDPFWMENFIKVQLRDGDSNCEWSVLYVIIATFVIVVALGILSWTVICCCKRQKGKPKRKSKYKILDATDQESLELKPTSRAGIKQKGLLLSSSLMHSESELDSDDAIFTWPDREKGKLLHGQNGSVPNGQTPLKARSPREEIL

[2] = biological target: T2, AAVR PKD1-5 D435A (UniProt Q8IZA0-1 1-1049, D435A); test: SPR
T2 sequence: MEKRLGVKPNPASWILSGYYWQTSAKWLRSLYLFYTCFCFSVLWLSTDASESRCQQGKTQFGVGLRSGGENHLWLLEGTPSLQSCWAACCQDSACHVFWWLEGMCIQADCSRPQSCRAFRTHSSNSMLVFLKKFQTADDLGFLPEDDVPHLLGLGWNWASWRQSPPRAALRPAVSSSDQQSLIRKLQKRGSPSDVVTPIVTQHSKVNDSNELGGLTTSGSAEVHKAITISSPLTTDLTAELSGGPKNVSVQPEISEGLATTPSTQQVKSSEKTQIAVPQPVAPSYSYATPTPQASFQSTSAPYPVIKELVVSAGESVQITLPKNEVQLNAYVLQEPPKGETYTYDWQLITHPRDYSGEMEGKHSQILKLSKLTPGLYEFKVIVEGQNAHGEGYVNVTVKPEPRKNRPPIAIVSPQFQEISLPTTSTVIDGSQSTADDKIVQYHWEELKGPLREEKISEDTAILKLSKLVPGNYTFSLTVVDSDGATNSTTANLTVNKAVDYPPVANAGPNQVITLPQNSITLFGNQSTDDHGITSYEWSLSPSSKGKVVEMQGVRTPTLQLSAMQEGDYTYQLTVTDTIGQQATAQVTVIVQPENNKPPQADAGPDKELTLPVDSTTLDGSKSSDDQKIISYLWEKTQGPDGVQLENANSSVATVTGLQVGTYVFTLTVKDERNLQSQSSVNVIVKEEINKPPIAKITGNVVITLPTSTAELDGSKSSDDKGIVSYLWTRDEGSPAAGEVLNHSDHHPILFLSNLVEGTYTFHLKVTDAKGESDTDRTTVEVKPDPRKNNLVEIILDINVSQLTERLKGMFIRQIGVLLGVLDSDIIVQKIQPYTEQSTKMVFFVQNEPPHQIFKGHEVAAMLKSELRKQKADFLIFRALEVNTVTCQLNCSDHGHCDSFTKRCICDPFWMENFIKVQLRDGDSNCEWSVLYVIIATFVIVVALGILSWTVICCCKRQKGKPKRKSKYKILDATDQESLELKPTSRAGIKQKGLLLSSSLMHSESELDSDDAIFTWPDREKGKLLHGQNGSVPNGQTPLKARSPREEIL

B1: Adeno-associated virus 1 (AAV1) particle, wild-type capsid (complex)
chain: MAADGYLPDWLEDNLSEGIREWWDLKPGAPKPKANQQKQDDGRGLVLPGYKYLGPFNGLDKGEPVNAADAAALEHDKAYDQQLKAGDNPYLRYNHADAEFQERLQEDTSFGGNLGRAVFQAKKRVLEPLGLVEEGAKTAPGKKRPVEQSPQEPDSSSGIGKTGQQPAKKRLNFGQTGDSESVPDPQPLGEPPATPAAVGPTTMASGGGAPMADNNEGADGVGNASGNWHCDSTWLGDRVITTSTRTWALPTYNNHLYKQISSASTGASNDNHYFGYSTPWGYFDFNRFHCHFSPRDWQRLINNNWGFRPKRLNFKLFNIQVKEVTTNDGVTTIANNLTSTVQVFSDSEYQLPYVLGSAHQGCLPPFPADVFMIPQYGYLTLNNGSQAVGRSSFYCLEYFPSQMLRTGNNFTFSYTFEEVPFHSSYAHSQSLDRLMNPLIDQYLYYLNRTQNQSGSAQNKDLLFSRGSPAGMSVQPKNWLPGPCYRQQRVSKTKTDNNNSNFTWTGASKYNLNGRESIINPGTAMASHKDDEDKFFPMSGVMIFGKESAGASNTALDNVMITDEEEIKATNPVATERFGTVAVNFQSSSTDPATGDVHAMGALPGMVWQDRDVYLQGPIWAKIPHTDGHFHPSPLMGGFGLKNPPPQILIKNTPVPANPPAEFSATKFASFITQYSTGQVSVEIEWELQKENSKRWNPEVQYTSNYAKSANVDFTVDNNGLYTEPRPIGTRYLTRPL
For B1, the Kd [1] was 3.88 µM and the Kd [2] was 13.6 µM.
